Source: FireProtDB (doi:10.1110/ps.9.2.387)

Conditions: Escherichia coli (strain K12), Thermal, DSC, NaCl 100 mM, reversible: yes(>85%)
[1] = pH 5.5, Sodium cacodylate 10 mM

Sequence of Cold shock protein CspA wild type, P0A9X9 (P0A9X9 whole entry): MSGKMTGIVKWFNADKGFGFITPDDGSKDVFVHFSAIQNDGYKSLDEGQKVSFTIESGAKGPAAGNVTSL

## Cold shock protein CspA wild type, P0A9X9
pH 4, Sodium acetate 10 mM
  Tm: 33.2 °C
  unfolding enthalpy (calorimetric): 22.7 kcal/mol
pH 4.5, Sodium acetate 10 mM
  Tm: 42.1 °C
  unfolding enthalpy (calorimetric): 28.9 kcal/mol
pH 5, Sodium acetate 10 mM
  Tm: 47.7 °C
  unfolding enthalpy (calorimetric): 33 kcal/mol
[1]
  Tm: 54.4 °C
  unfolding enthalpy (calorimetric): 39.9 kcal/mol
pH 6, MOPS 10 mM
  Tm: 54.1 °C
  unfolding enthalpy (calorimetric): 39.9 kcal/mol
pH 6, PIPES 10 mM
  Tm: 53.1 °C
  unfolding enthalpy (calorimetric): 36.1 kcal/mol
pH 6, Sodium cacodylate 10 mM
  Tm: 56.5 °C
  unfolding enthalpy (calorimetric): 44.9 kcal/mol
pH 6, Sodium phosphate 10 mM
  Tm: 55.9 °C
  unfolding enthalpy (calorimetric): 39.4 kcal/mol
pH 6.5, HEPES 10 mM
  Tm: 56.5 °C
  unfolding enthalpy (calorimetric): 43.5 kcal/mol
pH 6.5, MOPS 10 mM
  Tm: 56.1 °C
  unfolding enthalpy (calorimetric): 39.9 kcal/mol
pH 6.5, PIPES 10 mM
  Tm: 55.2 °C
  unfolding enthalpy (calorimetric): 41.4 kcal/mol
pH 6.5, Sodium citrate 10 mM
  Tm: 56.8 °C
  unfolding enthalpy (calorimetric): 45.2 kcal/mol
pH 6.5, Sodium phosphate 10 mM
  Tm: 56.1 °C
  unfolding enthalpy (calorimetric): 43.3 kcal/mol
pH 6.5, imidazole 10 mM
  Tm: 53.7 °C
  unfolding enthalpy (calorimetric): 39.2 kcal/mol
pH 7, HEPES 10 mM
  Tm: 57.6 °C
  unfolding enthalpy (calorimetric): 47.6 kcal/mol
pH 7, MOPS 10 mM
  Tm: 56.4 °C
  unfolding enthalpy (calorimetric): 40.6 kcal/mol
pH 7, PIPES 10 mM
  Tm: 55.7 °C
  unfolding enthalpy (calorimetric): 41.4 kcal/mol
pH 7, Sodium cacodylate 10 mM
  Tm: 57 °C
  unfolding enthalpy (calorimetric): 47.3 kcal/mol
pH 7, Sodium citrate 10 mM
  Tm: 57 °C
  unfolding enthalpy (calorimetric): 46.4 kcal/mol
pH 7, Sodium phosphate 10 mM
  Tm: 57 °C
  unfolding enthalpy (calorimetric): 43.3 kcal/mol
pH 7, imidazole 10 mM
  Tm: 55.8 °C
  unfolding enthalpy (calorimetric): 40.1 kcal/mol
pH 7.5, HEPES 10 mM
  Tm: 57.8 °C
  unfolding enthalpy (calorimetric): 49 kcal/mol
pH 7.5, MOPS 10 mM
  Tm: 56.2 °C
  unfolding enthalpy (calorimetric): 41.4 kcal/mol
pH 7.5, PIPES 10 mM
  Tm: 56 °C
  unfolding enthalpy (calorimetric): 42.3 kcal/mol
pH 7.5, Sodium citrate 10 mM
  Tm: 57.3 °C
  unfolding enthalpy (calorimetric): 48.3 kcal/mol
pH 7.5, Sodium phosphate 10 mM
  Tm: 57.1 °C
  unfolding enthalpy (calorimetric): 46.9 kcal/mol
pH 7.5, imidazole 10 mM
  Tm: 55.9 °C
  unfolding enthalpy (calorimetric): 39 kcal/mol
pH 8, MOPS 10 mM
  Tm: 57.1 °C
  unfolding enthalpy (calorimetric): 42.5 kcal/mol
pH 8, imidazole 10 mM
  Tm: 56.8 °C
  unfolding enthalpy (calorimetric): 38.2 kcal/mol
pH 8.5, HEPES 10 mM
  Tm: 56.5 °C
  unfolding enthalpy (calorimetric): 42.1 kcal/mol
pH 8.5, Sodium borate 10 mM
  Tm: 57.7 °C
  unfolding enthalpy (calorimetric): 44.5 kcal/mol
pH 8.7, Sodium borate 10 mM
  Tm: 57.6 °C
  unfolding enthalpy (calorimetric): 43.7 kcal/mol
